Where two headings read alike, the source gives them in different places.
Legend:
[1] = target: T1, F protein of hMPV A virus (human metapneumovirus subtype A); assay: cell-based or functional assay
[2] = target: T2, F protein of hMPV B virus (human metapneumovirus subtype B); assay: cell-based or functional assay
T143K = target: T3, T143K; assay: ELISA; Ni-NTA plate coated with Expi293 supernatant containing the His-tagged antigen; antibody titrated; OD450
T3 construct: also called unprocessed hMPV PreF T143K

N135T G139N Y233N = target: T4, N135T G139N Y233N; assay: as above
T4 construct: also called unprocessed hMPV PreF N135T/G139N/Y233N

[3] = target: T5, unprocessed hMPV PreF trimeric antigen (human metapneumovirus strain B2); assay: as above
T5 construct: also called unprocessed hMPV WT PreF trimer; hMPV WT trimer

[4] = target: T1, F protein of hMPV A virus; assay: cell-based or functional assay; remark: listed apart in the source
[5] = target: T2, F protein of hMPV B virus; assay: cell-based or functional assay; remark: listed apart in the source
D414K = target: T6, D414K; assay: ELISA; Ni-NTA plate coated with Expi293 supernatant containing the His-tagged antigen; antibody titrated; OD450
T6 construct: also called unprocessed hMPV PreF D414K

[6] = target: T5, unprocessed hMPV PreF trimeric antigen; assay: as above; remark: listed apart in the source
[7] = target: F protein of RSV B/Washington virus (respiratory syncytial virus B, …); assay: cell-based or functional assay
[8] = target: T7, F protein of hMPV A MARM virus V231A/G264R (human metapneumovirus subtype A); assay: cell-based or functional assay
[9] = target: T8, F protein of hMPV A MARM virus G264R/Q434H (human metapneumovirus subtype A); assay: cell-based or functional assay
[10] = target: T9, F protein of hMPV A MARM virus K138Q (human metapneumovirus subtype A); assay: cell-based or functional assay
[11] = target: T1, F protein of hMPV A virus; assay: cell-based or functional assay; remark: listed apart in the source
[12] = target: T7, F protein of hMPV A MARM virus …; assay: cell-based or functional assay; remark: listed apart in the source
[13] = target: T8, F protein of hMPV A MARM virus …; assay: cell-based or functional assay; remark: listed apart in the source
[14] = target: T9, F protein of hMPV A MARM virus K138Q; assay: cell-based or functional assay; remark: listed apart in the source

B1: M1A08 (antibody, V domains shown)
VH: QVQLVQSGAEVKKPGASVKVSCKASGVTLTDYYFHWIRQAPGQALEWMGRINPARGGTHYAEKFEDRVTMTTDTSTNTVYMDLSSLRSDDTAVYYCARSGSTHNIYSGFYAFDHWGQGTLVTVSS
VL: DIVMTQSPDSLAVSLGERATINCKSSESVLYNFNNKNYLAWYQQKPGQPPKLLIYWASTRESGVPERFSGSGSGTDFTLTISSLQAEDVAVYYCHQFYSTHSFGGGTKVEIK
- PRNT IC50 [1]: 2.27 µg/mL
- PRNT IC50 [2]: 0.72 µg/mL

B2: M4B11 (antibody, V domains shown)
VH: QVQLVQSGTEVQTPGASVKVSCKTSGYIFTGYFMHWVRQAPGQGFEWMGWVNPYSGATTYAQKFQGRVTMTRDTSISTVYMELSRLTSDDTAIYYCAKDTSNSGPDLLEHWGQGTLVIVSS
VL: EIVLTQSPATLSLSPGERATLSCRASQSISNFLVWYQRKPGQAPRLLIFDVSKRATGIPTRFSGSGSGTDFTLTISSLEPEDFAVYYCQQRSNWPPGYTFGQGTKLEIK
- PRNT IC50 [1]: 0.652 µg/mL
- PRNT IC50 [2]: 0.238 µg/mL

B3: M3C06 (antibody, V domains shown)
VH: QVQLVQSGAEVKKPGSSVKVSCKAYGGTLSNYAISWVRQAPGQGLHWMGRIIPVMNVANYADNFQGRVTITADKSTSTAYMELSSLRSEDAAIYYCATARGLGSLEGGDAFDVWGQGTMLTVSS
VL: DIVMTQSPDSVAVSLGERATISCKSSLSLLYSSNNKNYLVWYQQKPGQPPKLLFYWASTRESGVPDRFSASGSGTDFTLTISSLQAEDVAVYYCQQYYSTPITFGQGTRLEIR
notes: IgG
- PRNT IC50 [1]: > 10 µg/mL
- PRNT IC50 [2]: 0.0617 µg/mL
- binding result (T143K): no binding (tested: about 3000 ng/mL)
- binding result (N135T G139N Y233N): binds
- EC50 (read off the curve) [3]: ~0.009 µg/mL

B4: M8C10 (antibody, V domains shown)
VH: QVQLVESGGGVVQPGRSLRLSCAASGFTFTTYTMHWVRQAPGKGLEWVALISSDGNNKYYADSVKGRFTISRDNSKNTLYLQMSSLRAEDTAVYYCARGYYSGGDAFDVWGQGTMVTVSS
VL: DIQMTQSPSTLSASVGDRVTITCRASQTITIWLAWYQQKPGKAPKLLIYDAVSLESGVPSRFRGSGSGTDFTLTISSLQPDDFATYYCQQYNNYPYTFGQGTKLEIKR
- PRNT IC50 [1]: 0.37 µg/mL
- PRNT IC50 [2]: 0.66 µg/mL
- virus neutralization IC50, MPV strain A1 [4]: 371 nM
- virus neutralization IC50, MPV strain B2 [5]: 660 nM

B5: M1A04 (antibody, V domains shown)
VH: EVQLVESGGGLVRPGGSLRLSCAASGFNVRNYYMSWVRQAPGKGLEWISVIYGGGTTFYAGSVKGRFTISRDDSKSTLFLQMNSLRADDTAVYYCARDPGTVMSTENLQGMDVWGQGTTVTVSS
VL: DIQMTQSPSSLSASVGDRVTITCRASQTIRSYLNWYQQKPGKAPNLLIYAATSLQSGVPSRFSGSGSGTDFTLTISSLQPEDSATYYCQQSFSTLYSFGQGTRLEIK
notes: IgG
- PRNT IC50 [1]: 0.0872 µg/mL
- PRNT IC50 [2]: 0.128 µg/mL
- binding result (D414K): binds
- EC50 (read off the curve) [6]: ~0.005 µg/mL

B6: M1C7 (antibody, V domains shown)
VH: QVQLVESGGGLVQPGRSLRLSCAASGFTFSSYAMHWVRQAPGKGLEWVAIITYDGSGKYYADSLEGRITISRDDPKSMLYLHMRSLTAEDTAVYYCVKSGSFSSAFWLEDWGQGTLVTVSS
VL: EIVLTQSPATLSLSPGERATLSCRASQSISNFVAWYQQKPGQAPRLLIYDASNGATGTPARFSGSGSGTDFTLTISSLEPEDFAVYYCQQRSTWTFGQGTKVEIKR
- PRNT IC50 [1]: 0.0083 µg/mL
- PRNT IC50 [7]: 1.1 µg/mL
- PRNT IC50 [2]: 0.0085 µg/mL

B7: M1D2 (antibody, V domains shown)
VH: QVQLQESGPGLVKPSGTLSLTCTVSGGSVNSDHWWTWVRQSPETGLEWIGELNHIGTFNYNPSFKSRATISIDTSKNQFSLTLTSVAAADTAVYYCARRPPPLPEYFYYYFMDVWGNGTTVTVSS
VL: DIQMTQSPSSLSASVGDRVTITCRTSQSIRGHINWYQQKPGKGPKLLIYGASSLQSGVPSRFSGSGSGTDFTLTISSLQAEDFATYYCQQSYSNPYSFGRGTKLEIKR
- PRNT IC50 [1]: 0.0117 µg/mL
- PRNT IC50 [2]: 0.0124 µg/mL

B8: M4B06 (antibody, V domains shown)
VH: EVQLLESGGGFVQPGGSLRLSCVVTGFTFSNYAMCWVRQAPGKGPEWVSGIGGSVGTTYYADSVKGRFTISRDNSKNTLYLQMSGLRAEDTARYYCAKVPSFFVFEDGFDMWGQGTVVTVSS
VL: QSVLTQPPSASGNPGQRVTISCYGSGSNIGNNYVHWFRQLPGTAPRLLIYNTDILVPGVPDRFSGSESGTSASLAISGLQSGDEADYFCAAWDDTLNGYVFGPGTTVTVL
- PRNT IC50 [1]: 0.0035 µg/mL
- PRNT IC50 [2]: 0.0022 µg/mL
- fold reduction of neutralization potency against the MARM virus [8]: 52 fold
- fold reduction of neutralization potency against the MARM virus [9]: 70 fold
- fold reduction of neutralization potency against the MARM virus [10]: 49 fold
- IC50, hMPV plaque reduction neutralization [11]: 0.0103 µg/mL
- IC50, hMPV plaque reduction neutralization [12]: 0.524 µg/mL
- IC50, hMPV plaque reduction neutralization [13]: 0.7 µg/mL
- IC50, hMPV plaque reduction neutralization [14]: 0.49 µg/mL

B9: M4B06 Fab (Fab, V domains shown)
VH: B8 VH
VL: B8 VL
- IC50, hMPV plaque reduction neutralization [11]: 0.076 µg/mL

B10: M1C7s (antibody, V domains shown)
VH: QVQLVQSGPEVRKPGSSVRVSCKASGGTFTRLTITWVRQAPGQGLEWMGRIIPAVDITNYAPKFQGRVTITADKSTGAVYMDLISLTSDDTAIYFCATVLDWSNALDIWGQGTMVTVSS
VL: DIVMTQTPLSLSVTPGQPASISCKSSESLLNSDGKTYLFWYLQKPGQSPQVLIYDLSSRFSGVPERFSGSGSGTDFTLKISRVEPEDVGIYYCMQGLHLPWTFGRGTRLEIKR
- PRNT IC50 [1]: 0.015 µg/mL
- PRNT IC50 [2]: 0.0092 µg/mL

B11: M4A10 (antibody, V domains shown)
VH: QVQLVQSGAEVKKPGASVKVSCKASGYTFNGHYLHWVRQAPGQGLEWMGWINPNSGGTDYAQRFQGRVTMTRGTSISTAYMELSRLTSDDTAVYFCARDNFGFWSASSGRHNWLDSWGQGTLVIVSS
VL: NFMLTQPHSVSESPGKTVTISCTRSTGNIASNYVQWYQQRPGSSPTTVIYEDNQRPSAVPDRFSGSIDSSSNSASLTVSGLRTEDEADYYCQSYDSGHHVVFGGGTKLTVL
notes: IgG
- PRNT IC50 [1]: > 10 µg/mL
- PRNT IC50 [2]: 0.0301 µg/mL
- EC50 (read off the curve) (T143K): ~0.002 µg/mL
- binding result (N135T G139N Y233N): binds
- EC50 (read off the curve) [3]: ~0.006 µg/mL

B12: M2B6 (antibody, V domains shown)
VH: QVQLQESGPGLVKPSETLSLTCSVSGASIGGYYWGWIRQPPGKGLEWLGYIYYSGRTVYSPSLRGRLALSLDMSRQQLSLRLRSVAAADTAVYYCASLTITPGWFDSWGPGTLVTVSS
VL: QSVLTQPPSVSGAPGQRVTISCTGSSSNIGAGYDVHWYQQFPGSAPKLLIYGNTKRPSGVPDRFSGSTSGSSASLAITGLQTEDEAEYYCQSYERNLDGALFGGGTKLSVL
- PRNT IC50 [1]: 0.044 µg/mL
- PRNT IC50 [7]: 0.0092 µg/mL
- PRNT IC50 [2]: 0.0237 µg/mL

B13: M3D04 (antibody, V domains shown)
VH: EVQLVESGGDLVEPGGSLRLSCAASGFTFESAWMSWVRQAPGKGLEWVGRIKSKLDHGTTDYAAPVKGRFTLSRDDSKNTLFLQMNNLKTEDTGVYYCATDRSDVRFLEWLGNYQFGMDVWGQGTTVAVSS
VL: EIVLTQSPGTLSLSPGERATLSCRASHSVSSSYLAWYQQKPGQAPRLLIFGASSRATGIPDRFSGSGSGTDFTLTISRLEPEDFAVYYCQQYLTSPPGWTFGQGTKVEIK
- PRNT IC50 [1]: 0.2 µg/mL
- PRNT IC50 [2]: 0.327 µg/mL

From patent US20240327502A1 (Merck Sharp & Dohme, published 2024)
